# Reference: US20250157661
# Target: Indicator molecule containing the cleavable sequence GPQGIFGQ with a terminal biotin group connected via a polyethylene glycol spacer/linker (intact, Examples 1-6)
row,Protein,"Reader value (lateral flow, CF1522-gold) with MMP at 0.5 ug/ml [reader units]"
1,MMP1 (Enzo) (protein) FVLTEGNPRWEQTHLTYRIENYTPDLPRADVDHAIEKAFQLWSNVTPLTFTKVSEGQADIMISFVRGDHRDNSPFDGPGGNLAHAFQPGPGIGGDAHFDEDERWTNNFREYNLHRVAAHELGHSLGLSHSTDIGALMYPSYTFSGDVQLAQDDIDGIQAIYGRSQNPVQP,478
2,MMP7 (Enzo) (protein) YSLFPNSPKWTSKVVTYRIVSYTRDLPHITVDRLVSKALNMWGKEIPLHFRKVVWGTADIMIGFARGAHGDSYPFDGPGNTLAHAFAPGTGLGGDAHFDEDERWTDGSSLGINFLYAATHELGHSLGMGHSSDPNAVMYPTYGNGDPQNFKLSQDDIKGIQKLYGKRSNSRKK,373
3,MMP11 (Enzo) (protein) FVLSGGRWEKTDLTYRILRFPWQLVQEQVRQTMAEALKVWSDVTPLTFTEVHEGRADIMIDFARYWHGDDLPFDGPGGILAHAFFPKTHREGDVHFDYDETWTIGDDQGTDLLQVAAHEFGHVLGLQHTTAAKALMSAFYTFRYPLSLSPDDCRGVQHLYGQPWPTVTSRTPALG,280
4,MMP12 (Enzo) (protein) GPVWRKHYITYRINNYTPDMNREDVDYAIRKAFQVWSNVTPLKFSKINTGMADILVVFARGAHGDFHAFDGKGGILAHAFGPGSGIGGDAHFDEDEFWTTHSGGTNLFLTAVHEIGHSLGLGHSSDPKAVMFPTYKYVDINTFRLSADDIRGIQSLYG,1250
